In PMC4618692, “Crystal Structure and Identification of Two Key Amino Acids Involved in AI-2 Production and Biofilm Formation in Streptococcus suis LuxS” (PLoS ONE, 2015):

Target: the molecule itself
Experiment: SEC; size exclusion chromatography of purified LuxS (Superdex 200 named in the purification); data not shown

B1: S-ribosylhomocysteinase (LuxS) from Streptococcus suis strain HA9801 (enzyme, UniProt A4VTE8 1-160, looked up)
chain: MKKEVTVESFELDHTIVKAPYIRLISEEVGPKGDIITNFDIRLIQPNENAMDTAGLHTIEHLLAKLIRQRIDGLIDCSPFGCRTGFHMIMWGKQDSEKIAQVIKSSLEEIAEGITWEDVPGTTIESCGNYKDHSLHSAKEWAKLILSQGISTDAFERKPI
notes: also called S. suis LuxS; SS LuxS protein; source: E. coli BL21 (DE3), pET28-luxS, purified (HisTrap column, Superdex 200 size-exclusion chromatography)
  stoichiometry N: 2
